Reference: patent US20090074766A1, “Methods of inhibiting HIV-2 infection” (priority 2007, published 2009)

Key:
[1] = system: primary R5 HIV-1 isolates; test: Whole virus replication (neutralization) assay in PBMC, p24 ELISA; format: cell-based; details: variety of primary R5 strains (FIG. 1)
Experimental: The data reflect the median values from 8 or more independent assays. The genetic subtypes of the viruses are indicated in parentheses.
Replication of authentic HIV-1 is measured in activated peripheral blood mononuclear cells (PBMCs) using the monocyte/macrophage-tropic HIV-1 clone, JRFL (HIV-1JRFL), for these studies.
PBMCs are isolated from 4 separate donors (Leukopacks) by centrifugation on a Ficoll gradient. CD8 cells are depleted using RosetteSep CD8 Depletion Cocktail (#15663, StemCell Research, Vancouver, BC). […]
Serial dilutions of virus are tested in quadruplicate on activated PBMCs (1.4×10^5 PBMC/well). […] Virus titer is determined by the method of Reed and Muench (Table 11, see below). […]
The percent inhibition is derived as follows [1−(p24 levels in the presence of drug/p24 levels in the absence of drug)]×100. IC50 values are determined by fitting the inhibition data with a non-linear, four-parameter, variable slope equation (GraphPad Prism, ver. 4.02; GraphPad Software, San Diego, Calif.). […]
Serial dilutions of virus are tested in quadruplicate on activated PBMCs (1.4×10^5 PBMC/well). […] Virus titer is determined by the method of Reed and Muench (Table 11).

[2] = Phase 1b clinical trial: pharmacokinetics (serum PRO 140 by ELISA); details: non-compartmental analysis, HIV-infected subjects

B1: PRO 140: humanized IgG4,κ anti-CCR5 monoclonal antibody, humanized version of murine mAb PA14 (antibody, chains of the INN, looked up, V domains shown)
VH: EVQLVESGGGLVKPGGSLRLSCAASGYTFSNYWIGWVRQAPGKGLEWIGDIYPGGNYIRNNEKFKDKTTLSADTSKNTAYLQMNSLKTEDTAVYYCGSSFGSNYVFAWFTYWGQGTLVTVSS
VL: DIVMTQSPLSLPVTPGEPASISCRSSQRLLSSYGHTYLHWYLQKPGQSPQLLIYEVSNRFSGVPDRFSGSGSGTDFTLKISRVEAEDVGVYYCSQSTHVPLTFGQGTKVEIK
IC90 [1]: 3 to 4 µg/mL
Terminal half life [2]: approximately 4 d
